Results as given in PMC5714199.

Key:
Assay in all cases: SPR
CTDΔED = CTDΔED (Streptomyces coelicolor, UniProt Q9X909 610-950, del951-952)
TopA881 = TopA881 (Streptomyces coelicolor, UniProt Q9X909 1-881, del882-952)
TopA wild type = TopA wild type (Streptomyces coelicolor, UniProt Q9X909 1-952)
TopA CTD = TopA CTD (Streptomyces coelicolor, UniProt Q9X909 610-952)

Measured: binding result

B1: sstopA-biot 120 nt ssDNA (63% GC) (ssDNA)
DNA: not shown
binds: all assays above
